Bounds are passed on as bounds.

Cleaving percentage (C-terminal cleavage, SDS-PAGE), in solution, room temperature, pH 8.5, 1 hour data for one substance are collected here from US20200024370A1.

The experiment deals with NpuN (cysteine-free, C.F.), N-terminal Npu DnaE intein segment with His tag and three C-terminal cysteines, coupled to SulfoLink resin (Nostoc punctiforme). Put plainly: cell-based or functional assay.

In the case of “NpuC^HN-SK^C, C-terminal intein segment with serine to histidine mutation fused to streptokinase with cysteine as +1 residue (from UniProt P00779 27-440)”, the cleaving percentage (C-terminal cleavage, SDS-PAGE), in solution, room temperature, pH 8.5, 1 hour is > 50%.
